Source: patent US20240228562A1 (Pieris, published 2024)

T1: recombinant rat CTGF protein (R&D Systems) (rat, UniProt Q9R1E9 25-347)
T1 construct: Bought; also called rCTGF
T1 sequence: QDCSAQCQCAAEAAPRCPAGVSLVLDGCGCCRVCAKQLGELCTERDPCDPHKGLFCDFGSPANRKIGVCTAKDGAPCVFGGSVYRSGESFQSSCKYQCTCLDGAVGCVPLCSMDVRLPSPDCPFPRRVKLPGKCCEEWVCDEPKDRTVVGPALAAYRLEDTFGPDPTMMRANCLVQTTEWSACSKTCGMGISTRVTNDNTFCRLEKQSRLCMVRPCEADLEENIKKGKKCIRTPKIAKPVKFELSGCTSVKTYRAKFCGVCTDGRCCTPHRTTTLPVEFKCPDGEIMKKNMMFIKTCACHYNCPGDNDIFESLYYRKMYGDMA

T2: huNOV (human, UniProt P48745 32-357, limits assumed)
T2 construct: also called human NOV (CCN3)
T2 sequence (looked up): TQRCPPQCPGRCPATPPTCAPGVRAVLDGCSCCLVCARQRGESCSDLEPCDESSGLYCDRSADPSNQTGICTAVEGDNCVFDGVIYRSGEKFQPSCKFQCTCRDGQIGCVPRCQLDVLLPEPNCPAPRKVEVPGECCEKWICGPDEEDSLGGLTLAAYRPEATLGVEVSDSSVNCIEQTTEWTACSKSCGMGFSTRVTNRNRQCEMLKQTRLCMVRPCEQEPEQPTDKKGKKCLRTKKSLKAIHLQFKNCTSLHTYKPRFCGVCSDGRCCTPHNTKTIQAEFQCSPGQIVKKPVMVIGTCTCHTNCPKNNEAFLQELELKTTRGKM

T3: huWISP-1 (human, UniProt O95388 23-367, limits assumed)
T3 construct: also called human WISP-1 (CCN4)
T3 sequence (looked up): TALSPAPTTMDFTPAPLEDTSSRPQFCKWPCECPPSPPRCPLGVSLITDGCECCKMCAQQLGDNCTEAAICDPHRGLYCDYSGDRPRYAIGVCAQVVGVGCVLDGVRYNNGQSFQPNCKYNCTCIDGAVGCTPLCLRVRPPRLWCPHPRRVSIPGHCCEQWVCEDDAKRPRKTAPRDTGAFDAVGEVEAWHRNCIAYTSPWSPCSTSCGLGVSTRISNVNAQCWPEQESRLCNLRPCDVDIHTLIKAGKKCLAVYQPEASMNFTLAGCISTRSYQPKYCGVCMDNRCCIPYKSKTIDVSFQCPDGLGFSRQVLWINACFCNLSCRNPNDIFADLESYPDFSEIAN

T4: huWISP-3 (human, UniProt O95389 24-354, limits assumed)
T4 construct: also called human WISP-3 (CCN6)
T4 sequence (looked up): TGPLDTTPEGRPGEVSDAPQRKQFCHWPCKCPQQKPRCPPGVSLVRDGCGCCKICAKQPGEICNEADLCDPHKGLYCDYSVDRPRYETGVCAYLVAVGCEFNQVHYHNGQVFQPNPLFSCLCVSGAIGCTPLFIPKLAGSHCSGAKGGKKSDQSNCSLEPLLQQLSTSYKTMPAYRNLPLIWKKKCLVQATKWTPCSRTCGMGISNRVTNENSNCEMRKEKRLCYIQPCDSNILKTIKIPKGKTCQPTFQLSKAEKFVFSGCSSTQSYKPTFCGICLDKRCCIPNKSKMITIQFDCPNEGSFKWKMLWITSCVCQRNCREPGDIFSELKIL


Assays:
[1] = biological target: T5, recombinant human CTGF-Fc protein (Creative Biomart) (human); assay: SPR (Biacore)
T5 construct: Bought; also called human CTGF with a human IgG1 Fc Tag
T5 sequence (chain, as listed by the source limits assumed): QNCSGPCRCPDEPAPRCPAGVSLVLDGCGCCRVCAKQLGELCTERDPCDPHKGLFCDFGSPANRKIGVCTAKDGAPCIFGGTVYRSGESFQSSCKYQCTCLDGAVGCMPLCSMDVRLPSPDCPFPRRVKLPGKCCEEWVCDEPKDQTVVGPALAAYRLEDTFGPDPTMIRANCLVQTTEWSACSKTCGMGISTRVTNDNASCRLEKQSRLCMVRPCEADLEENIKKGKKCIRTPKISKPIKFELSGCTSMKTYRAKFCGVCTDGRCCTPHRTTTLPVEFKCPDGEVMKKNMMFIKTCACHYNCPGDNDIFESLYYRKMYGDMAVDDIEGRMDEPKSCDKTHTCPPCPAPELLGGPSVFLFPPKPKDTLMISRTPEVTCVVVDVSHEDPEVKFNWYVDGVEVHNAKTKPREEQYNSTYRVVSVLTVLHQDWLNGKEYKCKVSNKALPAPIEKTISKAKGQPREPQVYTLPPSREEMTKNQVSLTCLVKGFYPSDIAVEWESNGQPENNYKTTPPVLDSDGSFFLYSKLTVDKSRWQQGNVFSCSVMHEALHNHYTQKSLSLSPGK
Procedure, shortened: (§1)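 Lipocalin muteins injected at 25 °C over CTGF either Fc-tagged and captured by anti-human IgG-Fc (0.25-2.5 μg/mL in HBS-EP+, 180 s) or amine-coupled directly to a CM5 chip. Association 180 s, dissociation 900-3600 s, flow 30 μL/min.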

[2] = biological target: T1, recombinant rat CTGF protein (R&D …); assay: SPR (Biacore)
Procedure, shortened: as §1

[3] = biological target: T2, huNOV; assay: ELISA, coated CCN protein
Method: (§2) Binding of muteins to closely related proteins of CTGF was tested by an ELISA assay. In detail, a 384-well plate suitable for fluorescence measurements (Greiner FLUOTRAC™ 600, black flat bottom, high-binding) was coated with 20 μl of human CTGF or the other members of the CCN protein family at a concentration of 1 μg/ml in PBS over night at 4° C. After washing with PBS with 0.05% Tween 20, wells were blocked with 100 μl blocking buffer containing 0.1% Tween 20 and 2% BSA (PBS-T/BSA) for 1 h at room temperature. 20 μl of serially diluted muteins starting at 1000 nM were incubated in PBS-T/BSA for 1 h at room temperature (RT).
(§3) The residual supernatants were discarded and 20 μl HRP-labeled anti-NGAL or anti-Strep-Tag antibody was added at a predetermined optimal concentration in PBS-T/BSA and incubated for 1 h at RT. After washing, 20 μl fluorogenic HRP substrate (QuantaBlu, Thermo) was added to each well, and the reaction was allowed to proceed for 2 to 60 minutes. The fluorescence intensity of every well on the plate was read using a fluorescence microplate reader (Tecan). When the signal for human CTGF approached saturation, the cross reactivity to the other proteins was assessed.

[4] = biological target: T3, huWISP-1; assay: ELISA, coated CCN protein
Method: as §2, §3

[5] = biological target: T4, huWISP-3; assay: ELISA, coated CCN protein
Method: as §2, §3

Kd [1] [nM] | koff [1] [s⁻¹] | kon [1] [M⁻¹ s⁻¹] | Kd [2] [nM] | koff [2] [s⁻¹] | kon [2] [M⁻¹ s⁻¹] | Binder | binding result [3] | binding result [4] | binding result [5]
12.8 | 0.00102 | 79800 | 16 | 0.00169 | 105000 | lipocalin mutein of SEQ ID NO: 9 (designed binder, Parent hNGAL mutein; also called hNGAL mutein) QDSTSDLIPAPPLSKVPLQQNFQDNQFHGKWYVVGLAGNKILRIDKQPAKMFATIYELKEDKSYDVTSVRFEARSCSYTIKTFVPGSQPGEFTAGNIKSAPGQTSTLVRVVSTNYNQHAMVFFKHVSQNRETFVITLYGRTKELTSELKENFIRFSKSLGLPENHIVFPVPIDQCIDGSAWSHPQFEK | no binding (tested: dilutions starting at 1000 nM) | no binding (tested: dilutions starting at 1000 nM) | no binding (tested: dilutions starting at 1000 nM)
0.547 | 4.47e-05 | 81700 | 0.95 | 0.000114 | 120000 | lipocalin mutein of SEQ ID NO: 15 (designed binder, also called hNGAL mutein; not shown: C-terminal His-tag) QDSTSDLIPAPPLSKVPLQQNFQDNQFQGKWYVVGLAGNAILREDKQPAKMFATIYELKEDKSYDVTSVRFEAKSCKYTIKTFVPGSQPGEFTAGYIKSAPGQTSTLVRVVSTNYNQHAMVFFKHVTQNREIFVITLYGRTKELTSELKENFIRFSKSLGLPENHIVFPVPIDQCIDG | no binding (tested: dilutions starting at 1000 nM) | no binding (tested: dilutions starting at 1000 nM) | no binding (tested: dilutions starting at 1000 nM)
9.27 | 0.000248 | 26800 | 27.7 | 0.00129 | 46500 | lipocalin mutein of SEQ ID NO: 25 (designed binder, Parent hNGAL mutein; also called hNGAL mutein) QDSTSDLIPAPPLSKVPLQQNFQDNQFHGKWYVVGMAGNFRLREDKDPSKMGATIYELKEDKSYNVTQVQFDDKKCLYVIETFVPGSQPGEFTLGAIKSFPGFTSQLVRVVSTNYNQHAMVFFKKVYQNREVFWITLYGRTKELTSELKENFIRFSKSLGLPENHIVFPVPIDQCIDGSAWSHPQFEK | no binding (tested: dilutions starting at 1000 nM) | no binding (tested: dilutions starting at 1000 nM) | no binding (tested: dilutions starting at 1000 nM)
37.5 | 0.00749 | 200000 | 39.3 | 0.0117 | 297000 | lipocalin mutein of SEQ ID NO: 3 (designed binder, Parent hNGAL mutein; also called hNGAL mutein) QDSTSDLIPAPPLSKVPLQQNFQDNQFHGKWYVVGRAGNNRLREDKDPPKMWATIYELKEDKSYNVTHVHFMTKKCRYIIDTFVPGSQPGEFTLGAIKSGPGMTSPLVRIVSTNYNQHAMVFFKWVNQNREWFTITLYGRTKELTSELKENFIRFSKSLGLPENHIVFPVPIDQCIDGSAWSHPQFEK | no binding (tested: dilutions starting at 1000 nM) | no binding (tested: dilutions starting at 1000 nM) | no binding (tested: dilutions starting at 1000 nM)
60.2 | 0.00587 | 97600 | 62.8 | 0.00754 | 120000 | lipocalin mutein of SEQ ID NO: 7 (designed binder, Parent hNGAL mutein; also called hNGAL mutein) QDSTSDLIPAPPLSKVPLQQNFQDNQFHGKWYVVGLAGNYGLRTDKRPSKMFATIYELKEDKSYDVTSVRFEQERCHYTIRTFVPGSQPGEFTTGSIKSRPGQTSSLVRVVSTNYNQHAMVFFKSVIQNREYFAITLYGRTKELTSELKENFIRFSKSLGLPENHIVFPVPIDQCIDGSAWSHPQFEK | no binding (tested: dilutions starting at 1000 nM) | no binding (tested: dilutions starting at 1000 nM) | no binding (tested: dilutions starting at 1000 nM)
11.2 | 0.00112 | 100000 | 18 | 0.00317 | 176000 | lipocalin mutein of SEQ ID NO: 29 (designed binder, Parent hNGAL mutein; also called hNGAL mutein) QDSTSDLIPAPPLSKVPLQQNFQDNQFHGKWYVVGWAGNIKLREDKDPFKMSATIYELKEDKSYNVTEVVFEQKKCHYIIKTFVPGSQPGEFTLGDIKSPPGETSSLVRVVSTNYNQHAMVFFKKVFQNREFFWITLYGRTKELTSELKENFIRFSKSLGLPENHIVFPVPIDQCIDGSAWSHPQFEK | no binding (tested: dilutions starting at 1000 nM) | no binding (tested: dilutions starting at 1000 nM) | no binding (tested: dilutions starting at 1000 nM)
